18 molecules from patent publication US20250250357A1 (NANJING ZAIMING PHARMACEUTICAL, published 2025) can be followed below.

Changes are numbered by the printed parent chain. Numbers in names are those of the source.

T1: monkey MSLN on HEK293T-monkey MSLN recombinant cells (monkey)
T1 construct: Full-length precursor as transfected; processing on the cell is not described; also called HEK293-monkey MSLN
T1 chain: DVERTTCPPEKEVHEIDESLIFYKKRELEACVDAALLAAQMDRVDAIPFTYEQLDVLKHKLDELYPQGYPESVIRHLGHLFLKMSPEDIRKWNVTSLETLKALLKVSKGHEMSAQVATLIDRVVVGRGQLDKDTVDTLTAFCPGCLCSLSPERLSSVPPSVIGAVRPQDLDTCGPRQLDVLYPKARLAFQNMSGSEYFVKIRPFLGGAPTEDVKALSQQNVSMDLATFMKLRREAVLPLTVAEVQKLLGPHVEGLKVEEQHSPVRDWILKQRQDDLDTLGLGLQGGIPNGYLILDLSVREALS

B1: F7.44.20-H10 (scFv, not shown: small tags and cut ends)
scFv: EVQLVQSGAEVKKPGASVKVSCKASGYTFTDYNMDWVRQAPGQGLEWMGDINPSTGGTIYNQKFNGRVTMTEDKSASTVYMELSSLRSEDTAVYYCARRRIGTGYFDVWGQGTTVTVSSGGGGSGGGGSGGGGSEIVLTQSPDFQSVTPKEKVTITCSASSSVISSYLSWYQQKPDQSPKLLIYRTSNLASGVPSRFSGSGSGTDYTLTINSLEAEDAATYYCHQWSSFPYTFGGGTKVEIK
notes: also called S009-F7.44.20 humanized antibody VH2 + VL2
B2: F7.44.20-H5 (scFv, not shown: small tags and cut ends)
scFv: B1 scFv with N65Q, A76T, Y206F
notes: also called S009-F7.44.20 humanized antibody VH1a + VL1
B3: F7.44.20-H9 (scFv, not shown: small tags and cut ends)
scFv: B1 scFv with Y206F
notes: also called S009-F7.44.20 humanized antibody VH2 + VL1
B4: F7.44.20-H13 (scFv, not shown: small tags and cut ends)
scFv: B1 scFv with N65S, Y206F
notes: also called S009-F7.44.20 humanized antibody VH2a + VL1
B5: F7.44.20-H14 (scFv, not shown: small tags and cut ends)
scFv: B1 scFv with N65S
notes: also called S009-F7.44.20 humanized antibody VH2a + VL2
B6: F7.44.20-H3 (scFv, not shown: small tags and cut ends)
scFv: EVQLVQSGAEVKKPGASVKVSCKASGYTFTDYNMDWVRQAPGQGLEWMGDINPSTGGTIYNQKFNGRVTMTEDKSTSTVYMELSSLRSEDTAVYYCARRRIGTGYFDVWGQGTTVTVSSGGGGSGGGGSGGGGSEIVLTQSPATLSLSPGERATLSCSASSSVISSYLSWYQQKPGQSPRLLIYRTSNLASGIPARFSGSGSGTDYTLTISSLEPEDFAVYYCHQWSSFPYTFGGGTKVEIK
notes: also called S009-F7.44.20 humanized antibody VH1 + VL3
B7: F7.44.20-H8 (scFv, not shown: small tags and cut ends)
scFv: B6 scFv with N65Q, Q177S
notes: also called S009-F7.44.20 humanized antibody VH1a + VL4
B8: F7.44.20-H11 (scFv, not shown: small tags and cut ends)
scFv: B6 scFv with T76A
notes: also called S009-F7.44.20 humanized antibody VH2 + VL3
B9: F7.44.20-H12 (scFv, not shown: small tags and cut ends)
scFv: B6 scFv with T76A, Q177S
notes: also called S009-F7.44.20 humanized antibody VH2 + VL4
B10: F7.44.20-H15 (scFv, not shown: small tags and cut ends)
scFv: B6 scFv with N65S, T76A
notes: also called S009-F7.44.20 humanized antibody VH2a + VL3
B11: F7.44.20-H7 (scFv, not shown: small tags and cut ends)
scFv: B6 scFv with N65Q
notes: also called S009-F7.44.20 humanized antibody VH1a + VL3
B12: F7.44.20-H16 (scFv, not shown: small tags and cut ends)
scFv: B6 scFv with N65S, T76A, Q177S
notes: also called S009-F7.44.20 humanized antibody VH2a + VL4
B13: F7.44.20-H4 (scFv, not shown: small tags and cut ends)
scFv: B6 scFv with Q177S
notes: also called S009-F7.44.20 humanized antibody VH1 + VL4
B14: Tab110 (scFv, not shown: small tags and cut ends)
scFv: QQQLEESGGGLVKPEGSLTLTCKASGFDLGFYFYACWVRQAPGKGLEWIACIYTAGSGSTYYASWAKGRFTISKASSTTVTLQMTSLAAADTATYFCARSTANTRSTYYLNLWGPGTLVTVSSGGGGSGGGGSGGGGSDVVMTQTPASVSEPVGGTVTIKCQASQRISSYLSWYQQKPGQRPKLLIFGASTLASGVPSRFKGSGSGTEYTLTISDLECADAATYYCQSYAYFDSNNWHAFGGGTEVVV
notes: also called YP218 VH-(G4S)3-VL-his antibody; positive control
B15: F7.33.24-H1 (scFv, not shown: small tags and cut ends)
scFv: EVQLVQSGAEVKKPGASVKVSCKASGYTFTSYWMHWVRQAPGQRLEWMGNVNPSNGGSNYNEKFKNRVTITVDKSASTAYMELSSLRSEDTAVYYCAPHYIGSRPGFAYWGQGTLVTVSSGGGGSGGGGSGGGGSDIVMTQSPDSLAVSLGERATINCKASQNVGTNIAWYQQKPGQSPKALIYSASYRYSGVPDRFSGSGSGTDFTLTISSLQAEDVAVYYCQQYNSYPLTFGGGTKVEIK
notes: also called S009-F7.33.24 humanized antibody VH1 + VL1
B16: F7.33.24-H10 (scFv, not shown: small tags and cut ends)
scFv: B15 scFv with R44G, G56A
notes: also called S009-F7.33.24 humanized antibody VH2a + VL1
B17: F7.33.24-H4 (scFv, not shown: small tags and cut ends)
scFv: B15 scFv with N55S
notes: also called S009-F7.33.24 humanized antibody VH1a + VL1
B18: F7.33.24-H7 (scFv, not shown: small tags and cut ends)
scFv: B15 scFv with R44G
notes: also called S009-F7.33.24 humanized antibody VH2 + VL1

T2 sequence (Q13421 other isoform, or with tags, fused parts or gaps): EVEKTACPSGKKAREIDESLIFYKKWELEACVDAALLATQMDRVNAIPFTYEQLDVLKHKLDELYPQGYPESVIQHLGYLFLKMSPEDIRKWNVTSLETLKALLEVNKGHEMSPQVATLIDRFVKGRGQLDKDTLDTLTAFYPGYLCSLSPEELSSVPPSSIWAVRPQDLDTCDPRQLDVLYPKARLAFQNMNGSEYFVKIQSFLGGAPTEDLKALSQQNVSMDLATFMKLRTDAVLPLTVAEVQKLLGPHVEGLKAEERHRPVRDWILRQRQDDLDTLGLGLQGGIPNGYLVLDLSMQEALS
T3 sequence (Q13421 495-614): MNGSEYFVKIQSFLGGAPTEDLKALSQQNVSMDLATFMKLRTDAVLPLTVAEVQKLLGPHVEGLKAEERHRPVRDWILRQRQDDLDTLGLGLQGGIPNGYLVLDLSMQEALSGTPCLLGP

The first assay has as its target T2, human MSLN on OVCAR3 tumor cells (human, UniProt Q13421 296-598).
T2 construct: whole, on cells; also called human MSLN protein
Description: FACS, OVCAR3 cells.
B1: the EC50 amounted to 1.21 nM and the Maximum_MFI was 2320 MFI.

Molecule B2 gave an EC50 of 1 nM and a Maximum_MFI of 1960 MFI.

On to B3, for which the midpoint of the response, the EC50, lay at 1.61 nM and the Maximum_MFI is 2220 MFI.

Regarding B4, the half-maximal effective concentration (EC50) was 1.33 nM and the Maximum_MFI amounted to 2150 MFI.

In turn, B5 registered a concentration for a half-maximal effect (EC50) of 1.83 nM and a Maximum_MFI of 2140 MFI.

Molecule B6 gave an EC50 of 0.69 nM and a Maximum_MFI of 1810 MFI.

In turn, B7 came in with an EC50 of 1.04 nM and a Maximum_MFI of 1880 MFI.

Regarding B8, a half-maximal response (EC50) required 0.61 nM and the Maximum_MFI turned out to be 1950 MFI.

Molecule B9 showed a concentration for a half-maximal effect (EC50) of 1.5 nM and a Maximum_MFI of 2100 MFI.

B10 had an EC50 of 1.77 nM and a Maximum_MFI of 1930 MFI.

B11: the EC50 was 1.11 nM and the Maximum_MFI was 1840 MFI.

B12 displayed an EC50 of 1.66 nM and a Maximum_MFI of 1650 MFI.

Turning to B13, a half-maximal response (EC50) required 1.26 nM and the Maximum_MFI was determined as 1680 MFI.

A further assay has as its target T3, human MSLN-R3 on HEK293T-hMSLN-R3 recombinant cells (human, UniProt Q13421 487-606).
T3 construct: the C-terminal limit is uncertain; also called human MSLN-R3 membrane protein
Description: FACS, HEK293T-hMSLN-R3 cells.
As to B14, the Maximum_MFI was 461 MFI.

Consider B1, for which the concentration giving a half-maximal response (EC50) stood at 0.88 nM and the Maximum_MFI turned out to be 1470 MFI.

Turning to B2, the EC50 was 0.94 nM and the Maximum_MFI stood at 1700 MFI.

B3: the EC50 was found to be 1.67 nM and the Maximum_MFI worked out at 1560 MFI.

For B4, the EC50 was determined as 0.63 nM and the Maximum_MFI amounted to 1600 MFI.

In the case of B5, the EC50 is 1.52 nM and the Maximum_MFI came out at 1440 MFI.

Regarding B6, the EC50 is 1.57 nM and the Maximum_MFI came out at 1490 MFI.

Consider B7, for which the EC50 came out at 1.95 nM and the Maximum_MFI was determined as 1650 MFI.

B8: the EC50 was determined as 1.14 nM and the Maximum_MFI came to 1680 MFI.

For the molecule B9, the EC50 was 2.88 nM and the Maximum_MFI is 1410 MFI.

As to B10, the EC50 is 0.91 nM and the Maximum_MFI came out at 1500 MFI.

As for B11, the EC50 turned out to be 2.12 nM and the Maximum_MFI turned out to be 1510 MFI.

For B12, the EC50 was found to be 2.23 nM and the Maximum_MFI is 1440 MFI.

For the molecule B13, the EC50 was found to be 2.64 nM and the Maximum_MFI came out at 1470 MFI.

A further assay addresses T3, human MSLN-R3 on HEK293T-hMSLN-R3 …. Briefly: FACS, HEK293T-hMSLN-R3 cells. This is another data set of the same source.
Consider B14, for which the Maximum_MFI was 461 MFI.

B15: the EC50 was determined as 2.55 nM and the Maximum_MFI came out at 2190 MFI.

On to B16, for which the EC50 was found to be 1.1 nM and the Maximum_MFI was 1560 MFI.

As for B17, the EC50 was 2.15 nM and the Maximum_MFI is 1960 MFI.

Regarding B18, the EC50 was 1.61 nM and the Maximum_MFI is 1650 MFI.

The next assay has as its target T1, monkey MSLN on HEK293T-monkey MSLN …. Description: FACS, HEK293T-monkey MSLN cells.
As to B1, the EC50 is 4.25 nM and the Maximum_MFI is 9020 MFI.

For B2, the EC50 came out at 4.55 nM and the Maximum_MFI is 7780 MFI.

As for B3, the EC50 amounted to 8.05 nM and the Maximum_MFI was determined as 7460 MFI.

With B4, the EC50 is 2.35 nM and the Maximum_MFI was 9320 MFI.

As to B5, the 50% effective concentration (EC50) is 7.37 nM and the Maximum_MFI was determined as 8130 MFI.

Turning to B6, the 50% effective concentration (EC50) was found to be 7.34 nM and the Maximum_MFI turned out to be 7000 MFI.

With B7, the EC50 was determined as 7.09 nM and the Maximum_MFI is 6320 MFI.

Regarding B8, the EC50 is 3.74 nM and the Maximum_MFI stood at 7210 MFI.

As to B9, the EC50 worked out at 10.3 nM and the Maximum_MFI amounted to 6670 MFI.

On to B10, for which the EC50 was found to be 4.47 nM and the Maximum_MFI came to 8090 MFI.

On to B11, for which the EC50 was 9.24 nM and the Maximum_MFI came out at 6130 MFI.

As for B12, the EC50 came to 12.2 nM and the Maximum_MFI came out at 5980 MFI.

Take B13: the EC50 turned out to be 10.4 nM and the Maximum_MFI was found to be 6450 MFI.

Another assay addresses T2, human MSLN on OVCAR3 tumor cells. Description: FACS, OVCAR3 cells. This is another data set of the same source.
B15 displayed an EC50 of 1.05 nM and a Maximum_MFI of 2180 MFI.

In turn, B16 returned an EC50 of 3.04 nM and a Maximum_MFI of 2090 MFI.

The molecule B17 registered an EC50 of 3.04 nM and a Maximum_MFI of 2230 MFI.

In the case of B18, the EC50 is 2 nM and the Maximum_MFI stood at 2190 MFI.

For another assay, the target named is T1, monkey MSLN on HEK293T-monkey MSLN …. Briefly: FACS, HEK293T-monkey MSLN cells. The source holds these as a separate data set.
As to B15, the EC50 was found to be 4.16 nM and the Maximum_MFI was determined as 9050 MFI.

In the case of B16, the EC50 was found to be 3.94 nM and the Maximum_MFI was determined as 8620 MFI.

Consider B17, for which the EC50 came out at 5.23 nM and the Maximum_MFI was found to be 9380 MFI.

As for B18, the EC50 was 5 nM and the Maximum_MFI is 8820 MFI.

In a further assay the target is T4, human MSLN-hFc recombinant protein (human, UniProt Q13421 296-580).
T4 construct: Captured by an anti-human IgG antibody on the chip; also called human MSLN protein; Acro MSN-H5253
T4 sequence (Q13421 other isoform, or with tags, fused parts or gaps): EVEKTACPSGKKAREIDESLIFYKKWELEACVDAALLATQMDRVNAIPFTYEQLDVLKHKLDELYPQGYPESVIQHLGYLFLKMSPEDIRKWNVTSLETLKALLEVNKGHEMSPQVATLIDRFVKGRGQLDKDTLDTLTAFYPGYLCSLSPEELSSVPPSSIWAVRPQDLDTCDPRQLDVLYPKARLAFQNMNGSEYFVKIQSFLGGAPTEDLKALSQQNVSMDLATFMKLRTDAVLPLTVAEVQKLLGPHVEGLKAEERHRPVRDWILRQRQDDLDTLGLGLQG
Briefly: SPR (Biacore 8K), MSLN-hFc captured, antibody injected.
For B2, the Kd stood at 0.709 nM, the koff came out at 0.000313 s⁻¹ and the kon is 442000 M⁻¹ s⁻¹.

For B3, the dissociation constant Kd was found to be 0.464 nM, the koff amounted to 0.000208 s⁻¹ and the kon stood at 449000 M⁻¹ s⁻¹.

As to B12, the Kd worked out at 1.85 nM, the off-rate constant (koff) is 0.000679 s⁻¹ and the kon came out at 367000 M⁻¹ s⁻¹.
